Results reported in patent US7897732B2, “Antibodies to heparin-binding growth factor (HBGF) polypeptides” (Childrens Hospital Research Foundation, priority 1997, dated 2011).

B1: HBGF-0.8-P1: 10-kDa heparin-binding growth factor; N-terminally truncated porcine CTGF starting at residue 247 (SEQ ID NO: 1 N-terminus) (protein)
chain: EENIKKGKKCIRTPKISKPVKFELSGCTSVKTYRAKFCGVCTDGRCCTPHRTTTLPVEFKCPDGEVMKKSMMFIKTCACHYNCPGDNDIFESLYYRKMYGDMA
B2: HBGF-0.8-P2: 10-kDa heparin-binding growth factor; truncated porcine CTGF starting at residue 248 (SEQ ID NO: 2 N-terminus) (protein)
chain: ENIKKGKKCIRTPKISKPVKFELSGCTSVKTYRAKFCGVCTDGRCCTPHRTTTLPVEFKCPDGEVMKKSMMFIKTCACHYNCPGDNDIFESLYYRKMYGDMA

How the values were obtained:
Balb/c 3T3 fibroblasts = test: DNA synthesis ([3H]thymidine incorporation) assay in confluent quiescent Balb/c 3T3 cells; assay type: cell-based
Protocol: To assess the relative mitogenic capability of HBGFs with IGF-1, EGF, bFGF, and PDGF-AB, DNA synthesis assays on 3T3 cells were performed (Table 4). Biologically active fractions containing the 0.3-0.6 M NaCl eluate from the Bio-Rex column were pooled, diluted 3-fold with 20 mM Tris-HCL (pH 7.4) containing 0.1% CHAPS, passed through a 0.45-μm membrane filter, placed in a siliconized polypropylene vessel, and applied with a peristaltic pump to an EconoPac heparin column (0.7×3.6 cm; Bio-Rad) at 2 ml/min. The heparin column was then washed with 50 ml of 20 mM Tris-HCl buffer, 0.2 M NaCl, 0.1% CHAPS and developed at 1 ml/min with a 40 ml gradient of 0.1-2.0 M NaCl in 20 mM Tris-HCl, 0.1% CHAPS (pH 7.4) using a fast protein liquid chromatography (FPLC) system (Pharmacia Biotech Inc.). Fractions (1 ml) were collected into siliconized tubes during NaCl gradient elution and tested for 3T3 cell mitogenic activity. Column fractions were tested for their ability to stimulate DNA synthesis as measured by [^3H]thymidine incorporation into the DNA of confluent quiescent Balb/c 3T3 cells grown in 200 μl of Dulbecco's modified Eagle's medium, 10% bovine calf serum in 96-well culture plates as described (Kim, G. Y., et al., Biol. Reprod. 52, 561-571 (1995)). Dose-response curves to purified growth factors from ULF were established by assaying each dose in triplicate, with data computed as mean±S.D. Statistical significance of the effects of 1-100 μg/ml porcine heparin (Sigma) on growth factor activity was determined by Students' t test.

[1] = Heparin affinity chromatography (NaCl required for elution); assay type: binding
Protocol: Fractions that contained HBGF activity (fractions 16-19 collected after the cation exchange chromatography and heparin affinity chromatography) were pooled, diluted, and subjected to a second cycle of heparin affinity FPLC using a TSK heparin 5PW column. To perform the second heparin affinity purification step, biologically active HBGF fractions containing the 0.8 M NaCl eluate from the EconoPac heparin purification step were pooled, diluted 3-fold with 20 mM Tris-HCl (pH 7.4), and clarified by passage through a 0.2-μm filter. The sample was applied at 2 ml/min to a TSK heparin 5PW column (0.8×7.5 cm; TosoHaas, Philadelphia, Pa.), that was washed and eluted as described above, except that CHAPS was omitted from the buffers and fractions of 0.5 ml were collected. […] HBGF polypeptide was again eluted by 0.8 M NaCl (fractions 31-36), but was resolved as two peaks of mitogenic activity which had distinct heparin binding properties. The activity peaks were termed HGBF-0.8-P1 for fractions 31-34 and HGBF-0.8-P2 for fractions 35 and 36. To assess the relative mitogenic capability of HBGFs with IGF-1, EGF, bFGF, and PDGF-AB, DNA synthesis assays on 3T3 cells were performed (Table 4). Biologically active fractions containing the 0.3-0.6 M NaCl eluate from the Bio-Rex column were pooled, diluted 3-fold with 20 mM Tris-HCL (pH 7.4) containing 0.1% CHAPS, passed through a 0.45-μm membrane filter, placed in a siliconized polypropylene vessel, and applied with a peristaltic pump to an EconoPac heparin column (0.7×3.6 cm; Bio-Rad) at 2 ml/min. The heparin column was then washed with 50 ml of 20 mM Tris-HCl buffer, 0.2 M NaCl, 0.1% CHAPS and developed at 1 ml/min with a 40 ml gradient of 0.1-2.0 M NaCl in 20 mM Tris-HCl, 0.1% CHAPS (pH 7.4) using a fast protein liquid chromatography (FPLC) system (Pharmacia Biotech Inc.). Fractions (1 ml) were collected into siliconized tubes during NaCl gradient elution and tested for 3T3 cell mitogenic activity.

[2] = preparation after C8HPLC (step 1), bioactivity diminished due to acid exposure

Row | Molecule | ED50: concentration of HBGF-0.8 preparation required to give 50% maximal DNA synthesis (Balb/c 3T3 fibroblasts; [2]) [µg/mL] | ED50: concentration of HBGF-0.8 preparation required to give 50% maximal DNA synthesis (Balb/c 3T3 fibroblasts; preparation after C8HPLC, step 2, bioactivity diminished due to acid exposure) [µg/mL] | ED50: concentration of HBGF-0.8 preparation required to give 50% maximal DNA synthesis (Balb/c 3T3 fibroblasts; preparation after TSK-Hep step) [µg/mL] | NaCl required for elution from a heparin affinity column [1] [M] | Heparin affinity as compared with HBGF-0.8-P2 ([1]; TSK heparin 5PW column)
1 | B1 | 0.25 | 0.025 | 2.23 | 0.8 | lower heparin affinity
2 | B2 | 0.25 | – | 0.417 | 0.8 | –
